Reference: the supplement of paper PMC9732359
± gives the uncertainty stated by the source.

Experiment: protein stability index of a GFP-peptide fusion (yeast GPS) (PSI 1-4); higher = more stable; sorted into four equal gates, so the index is relative within each strain
Method in brief: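 Peptides tiling yeast proteins in 17-residue segments were fused downstream of GFP, with Cherry expressed from the same plasmid. As a pooled library in yeast, mid-log cultures grown in leucine-free medium were sorted into four equal gates by GFP/Cherry fluorescence ratio. Gate plasmids were PCR-amplified and Illumina-sequenced, and barcodes linked reads to strains. Each peptide received a protein stability index equal to the sum of each gate's read frequency times its gate number.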

| Sequence | protein stability index (doa10∆) | protein stability index (pdr5∆) | protein stability index (san1∆) | protein stability index (ubr1∆) |
| --- | --- | --- | --- | --- |
| NENNNNSSEKNNNNNNN [MED2] | 2.91 ± 0.066 | 2.96 ± 0.065 | 3.04 ± 0.071 | 2.95 ± 0.07 |
| NENPINKIMTNQINSFW [NUT1] | 2.5 ± 0.065 | 2.66 ± 0.064 | 2.43 ± 0.054 | 2.9 ± 0.042 |
| NENRNTGAGVDVNTNAN [SNF11] | 3.11 ± 0.062 | 3.42 ± 0.06 | 3.15 ± 0.039 | 3.36 ± 0.054 |
| NERRKDLAERASELDES [SMC3] | 2.13 ± 0.058 | 2.79 ± 0.06 | 1.98 ± 0.11 | 2.97 ± 0.054 |
| NESFNRRISSMPGGYFH [YAR002W/NUP60] | 2.88 ± 0.09 | 3.17 ± 0.089 | 3.07 ± 0.099 | 3.04 ± 0.043 |
| NEVIDKLKNENTDLKDI [PCI8] | 2.87 ± 0.066 | 3.04 ± 0.053 | 3.01 ± 0.048 | 3.13 ± 0.041 |
| NFASGDNNTASNMLGSN [RPB3] | 3 ± 0.12 | 2.98 ± 0.089 | 3 ± 0.12 | 3.24 ± 0.21 |
| NFEYDLSEYDAIQKKDN [YOR098C/NUP1] | 2.9 ± 0.2 | 3.23 ± 0.13 | 2.15 ± 0.26 | 3.23 ± 0.064 |
| NFILEVFGTIIPKISDY [YJL039C/NUP192] | 2.05 ± 0.17 | 1.68 ± 0.22 |  | 1.61 ± 0.26 |
| NFIVHSPMLKRIKITAN [GRR1] | 1.48 ± 0.072 | 1.2 ± 0.075 | 1.29 ± 0.13 | 1.19 ± 0.061 |
| NFLSKIRNINVQDALLT [SNF2] | 1.63 ± 0.047 | 1.99 ± 0.054 | 1.77 ± 0.083 | 1.54 ± 0.032 |
| NFYIQYDPKDGLYKMME [AAR2] |  | 2.21 ± 0.14 |  |  |
| NGGEDTSVENEGPVANL [REC8] | 3.37 ± 0.089 | 3.45 ± 0.094 | 3.06 ± 0.11 | 3.16 ± 0.058 |
| NGILPDDELMNWRRLSG [SSN2] | 2.97 ± 0.087 | 2.9 ± 0.073 | 2.98 ± 0.11 | 3.19 ± 0.091 |
| NGMFCQVPSSLIVRAKN [RRP4] | 2.07 ± 0.064 | 2.5 ± 0.12 | 2.31 ± 0.092 | 2.27 ± 0.082 |
| NGQPLNQNFSLTFQPQQ [GRR1] | 3.09 ± 0.051 | 3.12 ± 0.047 | 3.04 ± 0.051 | 3.01 ± 0.043 |
| NGQYAAFVKDMQVYLVP [RPC37] | 2.67 ± 0.12 | 1.52 ± 0.089 | 1.4 ± 0.073 | 1.83 ± 0.12 |
| NHFIFNVESAGAMTPEE [RPC40] | 2.01 ± 0.059 | 2.02 ± 0.061 | 2.4 ± 0.062 | 2.47 ± 0.045 |
| NHKIIARVKAFDRHCNM [SMD2] | 1.7 ± 0.07 | 1.72 ± 0.08 | 2.1 ± 0.086 | 1.93 ± 0.058 |
| NHPELQGITRNVVNYLS [RPC17] | 2.02 ± 0.062 | 1.83 ± 0.061 | 2.19 ± 0.11 | 2.47 ± 0.062 |
| NHSNNDIPTIADEHFWA [BRN1] | 3.38 ± 0.099 | 3.11 ± 0.077 | 3.2 ± 0.059 | 3.24 ± 0.036 |
| NHVKQFYERLDKSTTQL [MED11] | 2.47 ± 0.061 | 2.64 ± 0.081 | 2.5 ± 0.052 | 2.62 ± 0.083 |

| Sequence | protein stability index (doa10∆) | protein stability index (pdr5∆) | protein stability index (san1∆) | protein stability index (ubr1∆) |
| --- | --- | --- | --- | --- |
| NHVMPLKPVDKLKPMNI [SIN4] | 2.84 ± 0.1 | 2.93 ± 0.083 | 2.83 ± 0.087 | 2.94 ± 0.094 |
| NIDSLKFNELVKLMKNI [BRR2] | 1.37 ± 0.04 | 1.63 ± 0.067 | 1.5 ± 0.11 | 1.8 ± 0.052 |
| NIGTPSFNMAQIPQQLY [SNF5] | 1.93 ± 0.068 | 2.08 ± 0.072 | 2.17 ± 0.056 | 2.04 ± 0.047 |
| NIIESIANFSRAGKYEL [YJR042W/NUP85] | 2.86 ± 0.087 | 2.96 ± 0.086 | 2.87 ± 0.051 | 2.44 ± 0.042 |
| NIKNTNEEATPIPSSET [RRP6] | 2.61 ± 0.049 | 2.98 ± 0.052 | 2.44 ± 0.048 | 2.67 ± 0.056 |
| NILFSLWKLLSTVKVSD [YLR018C/POM34] | 1.76 ± 0.07 | 1.46 ± 0.058 | 1.58 ± 0.12 | 1.55 ± 0.057 |
| NINNSSVAEKEEIRSQI [SWI3] | 2.64 ± 0.072 | 2.19 ± 0.077 | 2.2 ± 0.075 | 2.51 ± 0.059 |
| NISNNLQKALTVKTNDE [RPN8] | 3.02 ± 0.16 | 3 ± 0.11 | 2.82 ± 0.14 | 2.88 ± 0.067 |
| NISTNTNIHEPQYINYS [SSN2] | 3.17 ± 0.067 | 2.98 ± 0.078 | 2.74 ± 0.069 | 2.97 ± 0.078 |
| NIYDQLRNKLIESNKLA [RRP6] | 2.34 ± 0.073 | 2.45 ± 0.084 | 1.9 ± 0.09 | 2.22 ± 0.073 |
| NKEMETQRIMTNVIAFA [YLR018C/POM34] | 2.33 ± 0.1 | 2.46 ± 0.07 | 1.99 ± 0.15 | 2.46 ± 0.058 |
| NKGAKAEDVALNEQVKK [NAS6] | 2.98 ± 0.2 | 2.96 ± 0.19 | 2.77 ± 0.15 | 3.1 ± 0.075 |
| NKGRAVYINPSGEKIDF [BRR2] | 2.98 ± 0.13 | 2.76 ± 0.1 | 2.91 ± 0.071 | 3.17 ± 0.098 |
| NKLEKLNSLLTYIKSEI [SMC4] | 2.73 ± 0.061 | 2.32 ± 0.045 | 2.66 ± 0.057 | 2.87 ± 0.036 |
| NKLNFIVDDKQEMIDIL [DIB1] | 3.37 ± 0.099 | 3.01 ± 0.17 | 2.9 ± 0.15 | 3 ± 0.12 |
| NKQPRNESFNRRISSMP [YAR002W/NUP60] | 2.62 ± 0.068 | 3.04 ± 0.07 | 2.53 ± 0.078 | 2.99 ± 0.038 |
| NKSTSSEAEYSKDIETL [YIL149C/MLP2] | 3.19 ± 0.089 | 2.97 ± 0.099 | 3.21 ± 0.062 | 3.26 ± 0.072 |
| NKTAHLSIPGKSTPEGT [SNU114] | 2.94 ± 0.065 | 3.04 ± 0.061 | 2.79 ± 0.048 | 3.01 ± 0.038 |
| NKTKAVDNTVPSTTLFN [YOR098C/NUP1] | 2.84 ± 0.087 | 2.58 ± 0.067 | 3.04 ± 0.054 | 3.15 ± 0.055 |
| NKVVVNLNDAGLALQLF [RPN2] | 2.28 ± 0.084 | 2.19 ± 0.12 | 2.68 ± 0.12 | 1.85 ± 0.091 |
| NLCKIIEPFECVEISHI [RPN6] | 2.27 ± 0.12 | 2.09 ± 0.2 | 1.97 ± 0.11 |  |
| NLFKINSIDVPIRINST [YMR129W/POM152] | 1.89 ± 0.044 | 2.2 ± 0.042 | 2.02 ± 0.058 | 2.17 ± 0.033 |
